Assays:
[1] = compound: COc1cc(NC(C)=O)c(O)c2nccc(-c3ccccc3NC(=O)c3ccccc3)c12; test: (§1) Competitive inhibition of human topoisomerase 2alpha ATPase activity assessed as Km for ATP hydrolysis with DNA relaxation at 10 uM using supercoiled plasmid DNA as susbtrate after 1 hr by malachite green assay/Michelis-Menten kinetics analysis (reference value: 317.8 to 350.1 microM)
[2] = compound: Cn1ccc2c(c1=O)C(=O)c1nccc3c1c-2nc1ccccc13; test: as §1
[3] = compound: COc1cc(NC(C)=O)c(O)c2nccc(-c3ccccc3NC(=O)c3ccccc3)c12; test: Competitive inhibition of human topoisomerase 2alpha ATPase activity assessed as Vmax for ATP hydrolysis with DNA relaxation at 5 uM using supercoiled plasmid DNA as susbtrate after 1 hr by malachite green assay/Michelis-Menten kinetics analysis (reference value: 0.652 to 0.6529 pmol/s)
[4] = compound: COc1cc(NC(C)=O)c(O)c2nccc(-c3ccccc3NC(=O)c3ccccc3)c12; test: (§2) Competitive inhibition of human topoisomerase 2alpha ATPase activity assessed as Vmax for ATP hydrolysis with DNA relaxation at 10 uM using supercoiled plasmid DNA as susbtrate after 1 hr by malachite green assay/Michelis-Menten kinetics analysis (reference value: 0.652 to 0.6529 pmol/s)
[5] = compound: Cn1ccc2c(c1=O)C(=O)c1nccc3c1c-2nc1ccccc13; test: as §2
[6] = compound: Cn1ccc2c(c1=O)C(=O)c1nccc3c1c-2nc1ccccc13; test: Competitive inhibition of human topoisomerase 2alpha ATPase activity assessed as Km for ATP hydrolysis with DNA relaxation at 20 uM using supercoiled plasmid DNA as susbtrate after 1 hr by malachite green assay/Michelis-Menten kinetics analysis (reference value: 317.8 to 350.1 microM)
[7] = compound: COc1cc(NC(C)=O)c(O)c2nccc(-c3ccccc3NC(=O)c3ccccc3)c12; test: Competitive inhibition of human topoisomerase 2alpha ATPase activity assessed as Km for ATP hydrolysis with DNA relaxation at 5 uM using supercoiled plasmid DNA as susbtrate after 1 hr by malachite green assay/Michelis-Menten kinetics analysis (reference value: 317.8 to 350.1 microM)
[8] = compound: Cn1ccc2c(c1=O)C(=O)c1nccc3c1c-2nc1ccccc13; test: Competitive inhibition of human topoisomerase 2alpha ATPase activity assessed as Vmax for ATP hydrolysis with DNA relaxation at 20 uM using supercoiled plasmid DNA as susbtrate after 1 hr by malachite green assay/Michelis-Menten kinetics analysis (reference value: 0.652 to 0.6529 pmol/s)

B1: DNA topoisomerase 2-alpha (Homo sapiens), P11388 (protein)
chain: MEVSPLQPVNENMQVNKIKKNEDAKKRLSVERIYQKKTQLEHILLRPDTYIGSVELVTQQMWVYDEDVGINYREVTFVPGLYKIFDEILVNAADNKQRDPKMSCIRVTIDPENNLISIWNNGKGIPVVEHKVEKMYVPALIFGQLLTSSNYDDDEKKVTGGRNGYGAKLCNIFSTKFTVETASREYKKMFKQTWMDNMGRAGEMELKPFNGEDYTCITFQPDLSKFKMQSLDKDIVALMVRRAYDIAGSTKDVKVFLNGNKLPVKGFRSYVDMYLKDKLDETGNSLKVIHEQVNHRWEVCLTMSEKGFQQISFVNSIATSKGGRHVDYVADQIVTKLVDVVKKKNKGGVAVKAHQVKNHMWIFVNALIENPTFDSQTKENMTLQPKSFGSTCQLSEKFIKAAIGCGIVESILNWVKFKAQVQLNKKCSAVKHNRIKGIPKLDDANDAGGRNSTECTLILTEGDSAKTLAVSGLGVVGRDKYGVFPLRGKILNVREASHKQIMENAEINNIIKIVGLQYKKNYEDEDSLKTLRYGKIMIMTDQDQDGSHIKGLLINFIHHNWPSLLRHRFLEEFITPIVKVSKNKQEMAFYSLPEFEEWKSSTPNHKKWKVKYYKGLGTSTSKEAKEYFADMKRHRIQFKYSGPEDDAAISLAFSKKQIDDRKEWLTNFMEDRRQRKLLGLPEDYLYGQTTTYLTYNDFINKELILFSNSDNERSIPSMVDGLKPGQRKVLFTCFKRNDKREVKVAQLAGSVAEMSSYHHGEMSLMMTIINLAQNFVGSNNLNLLQPIGQFGTRLHGGKDSASPRYIFTMLSSLARLLFPPKDDHTLKFLYDDNQRVEPEWYIPIIPMVLINGAEGIGTGWSCKIPNFDVREIVNNIRRLMDGEEPLPMLPSYKNFKGTIEELAPNQYVISGEVAILNSTTIEISELPVRTWTQTYKEQVLEPMLNGTEKTPPLITDYREYHTDTTVKFVVKMTEEKLAEAERVGLHKVFKLQTSLTCNSMVLFDHVGCLKKYDTVLDILRDFFELRLKYYGLRKEWLLGMLGAESAKLNNQARFILEKIDGKIIIENKPKKELIKVLIQRGYDSDPVKAWKEAQQKVPDEEENEESDNEKETEKSDSVTDSGPTFNYLLDMPLWYLTKEKKDELCRLRNEKEQELDTLKRKSPSDLWKEDLATFIEELEAVEAKEKQDEQVGLPGKGGKAKGKKTQMAEVLPSPRGQRVIPRITIEMKAEAEKKNKKKIKNENTEGSPQEDGVELEGLKQRLEKKQKREPGTKTKKQTTLAFKPIKKGKKRNPWSDSESDRSSDESNFDVPPRETEPRRAATKTKFTMDLDSDEDFSDFDEKTDDEDFVPSDASPPKTKTSPKLSNKELKPQKSVVSDLEADDVKGSVPLSSSPPATHFPDETEITNPVPKKNVTVKKTAAKSQSSTSTTGAKKRAAPKGTKRDPALNSGVSQKPDPAKTKNRRKRKPSTSDDSDSNFEKIVSKAVTSKKSKGESDDFHMDFDSAVAPRAKSVRAKKPIKYLEESDEDDLF
[1]
  Km: 387 µM
[2]
  Km: 518 µM
[3]
  Vmax: 0.65 pmol/s
[4]
  Vmax: 0.646 pmol/s
[5]
  Vmax: 0.657 pmol/s
[6]
  Km: 651 µM
[7]
  Km: 380 µM
[8]
  Vmax: 0.65 pmol/s
